Results reported in patent US20250340631A1 (HARBOUR BIOMED SHANGHAI, published 2025).

Key:
human CLDN18.2 [1] = target: T1, human CLDN18.2 (human); assay: competition FACS on HEK293/hCLDN18.2 cells; competitor 10 nM biotinylated PR000400
T1 construct: the HEK293 line was made with a GenScript plasmid; also called hCLDN18.2
Protocol: (§1) This example is to study the binding of anti-human CLDN18.2 HCAb monoclonal antibodies to the epitope region of human CLDN18.2 antigen. Competitive binding experiments were performed at the cellular level using HEK293/hCLDN18.2 cells overexpressing human CLDN18.2. […] Then suspension of HEK293/hCLDN18.2 cells overexpressing human CLDN18.2 were adjusted to 3×10⁶ cells/mL, seeded 50 L/well. The cells were co-incubated at 4° C. for 2 h. The cells in each well were washed twice with 200 μL of pre-cooled FACS buffer (2% FBS in PBS) and centrifuged at 500 g at 4° C. for 5 min, and then the supernatant was discarded. […] The cells in each well were washed twice with 200 μL of pre-cooled FACS buffer (2% FBS in PBS) and centrifuged at 500 g at 4° C. for 5 min, and then the supernatant was discarded. Finally, the cells in each well were resuspended in 200 μL of pre-cooled FACS buffer, and the fluorescence signal values were read using a BD FACS CANTOII.

human CLDN18.2 [2] = target: T1, human CLDN18.2; assay: FACS on NUGC4_D8 cells
Protocol: (§2) The binding affinity of an antibody was detected by FACS using human CLDN18.1-expressing HEK293 cells, human CLDN18.2-expressing HEK293 cells, NUGC4_D8 cells and SNU601 cells endogenously expressing human CLDN18.2 (Cobioer, CBP60507). […] The cell density was adjusted to 10⁶ cells/mL, and 50 μL of the cell suspension was added to each well of a 96-well plate. Antibodies were diluted to different concentrations with FACS buffer, and 50 μL of the antibody dilution was added to each well of the 96-well plate. After 2 h of incubation at 4° C., the plate was washed twice with FACS buffer. […] After 1 h of incubation at 4° C., the plate was washed twice with FACS buffer. The cells were resuspended in fixative solution, and then the fluorescence of the cells was monitored using an FACS instrument (ACEA NovoCyte).

human CLDN18.2 [3] = target: T1, human CLDN18.2; assay: competition FACS on HEK293/hCLDN18.2 cells; competitor 200 nM biotinylated PR004549
Protocol: as §1

human CLDN18.2 [4] = target: T1, human CLDN18.2; assay: FACS on HEK293/hCLDN18.2 cells
Protocol: as §2

human CLDN18.2 [5] = target: T1, human CLDN18.2; assay: competition FACS on HEK293/hCLDN18.2 cells; competitor 200 nM biotinylated PR004549; remark: listed apart in the source
Protocol: (§3) This example is to study the binding of anti-human CLDN18.2 bispecific antibodies to the epitope region of a human CLDN18.2 antigen. Competitive binding experiments were performed at the cellular level using human CLDN18.2-overexpressing HEK293/hCLDN18.2 cells. […] The mixture was well mixed and incubated at 4° C. for 30 min. 25 μL of the corresponding serially diluted non-biotinylated anti-human CLDN18.2 antibody was added. The mixture was well mixed and incubated at 4° C. for 1 h. The cells in each well were washed twice with 200 μL of pre-cooled FACS buffer (2% BSA in DPBS) and centrifuged at 500 g at 4° C. for 5 min, and then the supernatant was discarded. A fluorescent secondary antibody (Jackson ImmunoResearch, 016-540-084, 1:500) was added. The mixture was incubated at 4° C. in the absence of light for 1 h. The cells in each well were washed twice with 200 μL of pre-cooled FACS buffer (2% BSA in DPBS) and centrifuged at 500 g at 4° C. for 5 min, and then the supernatant was discarded. Finally, the cells in each well were resuspended in 200 μL of pre-cooled FACS buffer, and the fluorescence signal values were read using a ACEA_NovoCyte.

human CLDN18.2 [6] = target: T1, human CLDN18.2; assay: FACS on NUGC4_D8 cells; remark: listed apart in the source
Protocol: as §2

human CLDN18.2 [7] = target: T1, human CLDN18.2; assay: competition FACS on HEK293/hCLDN18.2 cells; competitor 10 nM biotinylated PR000400; remark: listed apart in the source
Protocol: as §3

human CLDN18.2 [8] = target: T1, human CLDN18.2; assay: FACS on SNU601 cells
Protocol: as §2

[9] = target: T2, Biotinylated human CD3E&D (human, UniProt P07766 23-126; P04234 22-105, biotin label); assay: BLI (Octet), biotinylated CD3 on SA sensor, 1:1 global fit;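 note: antibodies applied as analyte in 2-fold serial dilutions, with a 180 s association phase followed by a 300 s dissociation phase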
T2 construct: also called CDD-H82W6
T2 sequence (P07766 23-126, chain 1 of 2): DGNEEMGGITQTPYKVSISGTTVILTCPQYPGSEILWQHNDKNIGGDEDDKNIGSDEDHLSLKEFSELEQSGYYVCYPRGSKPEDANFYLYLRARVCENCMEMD
T2 sequence (P04234 22-105, chain 2 of 2): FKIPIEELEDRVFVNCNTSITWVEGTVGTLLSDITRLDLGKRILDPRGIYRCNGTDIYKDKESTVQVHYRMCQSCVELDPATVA
Protocol: The binding kinetics between proteins and antibodies was analyzed by the Biolayer Interferometry (BLI) technique using an Octet Red 96e (Fortebio) system. Human CD3E (Acro, CDE-H5223), cynomolgus CD3E (Acro, CDE-C5226) and murine CD3E (Acro, CDE-M5256) were mixed with biotin (Thermo Scientific, A39257) in a molar ratio of 1:3. The mixture was incubated at 4° C. overnight, and then excess biotin was removed to obtain biotinylated CD3E. The rotation speed was set at 1000 rpm for the system. […] After being equilibrated in the buffer for 120 s, the SA sensor with captured CD3 was allowed to bind to 2-fold serially diluted antibodies. […] Finally, the SA sensor was immersed in a 10 mM glycine-hydrochloric acid solution at pH 1.5 for regeneration to elute the antibodies bound to the sensor. […] For the interactions of fast binding and fast dissociation, the “steady state” method was selected to fit the data to obtain KD(M) values.

Binder | IC50 (human CLDN18.2 [1]) | Maximum inhibition rate (%) (human CLDN18.2 [1]) | EC50 (human CLDN18.2 [2]) | Emax (MFI) (human CLDN18.2 [2]) | IC50 (human CLDN18.2 [3]) | Maximum inhibition rate (%) (human CLDN18.2 [3]) | EC50 (human CLDN18.2 [4]) | Emax (MFI) (human CLDN18.2 [4]) | EC50 (human CLDN18.2 [6]) | Emax (MFI) (human CLDN18.2 [6]) | EC50 (human CLDN18.2 [8]) | Emax (MFI) (human CLDN18.2 [8]) | further results
PR000400 (antibody, human IgG1, kappa, V domains shown, also called IMAB362 analogue) VH: QVQLQQPGAELVRPGASVKLSCKASGYTFTSYWINWVKQRPGQGLEWIGNIYPSDSYTNYNQKFKDKATLTVDKSSSTAYMQLSSPTSEDSAVYYCTRSWRGNSFDYWGQGTTLTVSS VL: DIVMTQSPSSLTVTAGEKVTMSCKSSQSLLNSGNQKNYLTWYQQKPGQPPKLLIYWASTRESGVPDRFTGSGSGTDFTLTISSVQAEDLAVYYCQNDYSYPFTFGSGTKLEIKR | 20.1 nM | 96.4% | 17 nM | 101000 MFI | 11.5 nM | 90.7% | 5.6 nM | 1.32e+06 MFI | 56.4 nM | 58400 MFI |  |  | IC50 (human CLDN18.2 [5]): 25.2 nM; Maximum inhibition rate (%) (human CLDN18.2 [5]): 52.3%; IC50 (human CLDN18.2 [7]): 36.2 nM; Maximum inhibition rate (%) (human CLDN18.2 [7]): 92.7%
PR004536 (antibody, V domains shown, anti-CLDN18.2 HCAb: VH fused to human IgG1 Fc, no light chain; also called R1029P028A11) VH: EVQLVESGGGLVQPGGSLRLSCAASGFTFSSYWMYWVRQVPGKGLVWVSHINSDGSTTQYADSVKGRFTISRDNAKNMLYLQMNSLRAEDTAVYYCARDFPVLGGSHFDFQHWGQGTLVTVSS | 103 nM | 98% |  |  | 74.1 nM | 90.1% |  |  |  |  | 52.7 nM | 15800 MFI | 
PR007247 (antibody, human IgG1, V domains shown, HCDR2 PTM-removal mutant of PR004536; HCAb, human IgG1 Fc; also called 4536_M8A6) VH: EVQLVESGGGLVQPGGSLRLSCAASGFTFSSYWMYWVRQVPGKGLVWVSHINPLGSTTQYADSVKGRFTISRDNAKNMLYLQMNSLRAEDTAVYYCARDFPVLGGSHFDFQHWGQGTLVTVSS |  |  |  |  |  |  | 35.3 nM | 1.27e+06 MFI |  |  |  |  | 
PR004533 (antibody, V domains shown, anti-CLDN18.2 HCAb: VH fused to human IgG1 Fc, no light chain; also called R1029P021E10) VH: EVQLVESGGGLVQPGGSLRLSCAASGFTFSSYWMHWVRQVPGKGLVWVSRINSDGSRTIYADSVKGRFTISRDNAKNTLYLQMNSLRAEDTAVYYCARGEDHDILTGYPIRGQGTTVTVSS | 25.5 nM | 98.6% | 25 nM | 183000 MFI | 23.2 nM | 93.7% |  |  |  |  | 11.9 nM | 11300 MFI | 
PR004540 (antibody, V domains shown, anti-CLDN18.2 HCAb: VH fused to human IgG1 Fc, no light chain; also called R1029P037B07) VH: EVQLVESGGGLVQPGGSLRLSCAASGFTFSIYWMHWVRQVPGKGLVLVSRISSDGNYTSYADSVKGRFTISRDNAKNTLYLQMNSLRAEDTAVYLCARGEDHDMLTGYPVRGQGTTVTVSS | 64.1 nM | 95.8% |  |  | 50 nM | 89.2% |  |  |  |  |  |  | 
PR004949 (antibody, V domains shown, anti-CLDN18.2 HCAb: VH fused to human IgG1 Fc, no light chain; also called R1029P021C02) VH: EVQLVESGGGLVQPGGSLRLSCAASGFTFSAYWMHWVRQVPGRGLVWVSRINSDGSRTIYADSVKGRFTISRDNAKNTLYLQMNSLRAEDTAVYLCARGEDHDMLTGYPVRGQGTMVTVSS | 35.4 nM | 98.5% | 21.8 nM | 265000 MFI | 31 nM | 94.2% |  |  |  |  | 12.8 nM | 18300 MFI | 
PR004950 (antibody, V domains shown, anti-CLDN18.2 HCAb: VH fused to human IgG1 Fc, no light chain; also called R1029P021F07) VH: EVQLVESGGGLVQPGGSLRLSCAASGFTFSAYWMHWVRQVPGKGLVWVSRINSDGSRTIYADSVKGRFTISRDNAKNTLYLQMNSLRAEDTAVYYCARGEDHDILTGYPIRGQGTMVTVSS | 23.5 nM | 98.5% | 16.1 nM | 206000 MFI | 19.9 nM | 94.3% |  |  |  |  | 14.6 nM | 13600 MFI | 
PR007242 (antibody, human IgG1, V domains shown, HCDR2 PTM-removal mutant of PR004533; HCAb, human IgG1 Fc; also called 4533_M10E1) VH: EVQLVESGGGLVQPGGSLRLSCAASGFTFSSYWMHWVRQVPGKGLVWVSRINFDSSRTIYADSVKGRFTISRDNAKNTLYLQMNSLRAEDTAVYYCARGEDHDILTGYPIRGQGTTVTVSS |  |  |  |  |  |  | 11.3 nM | 1.48e+06 MFI | 69.5 nM | 176000 MFI |  |  | 
PR007243 (antibody, human IgG1, V domains shown, HCDR2 PTM-removal mutant of PR004533; HCAb, human IgG1 Fc; also called 4533_M3D9) VH: EVQLVESGGGLVQPGGSLRLSCAASGFTFSSYWMHWVRQVPGKGLVWVSRISSAGSRTIYADSVKGRFTISRDNAKNTLYLQMNSLRAEDTAVYYCARGEDHDILTGYPIRGQGTTVTVSS |  |  |  |  |  |  | 13.3 nM | 1.47e+06 MFI | 78.2 nM | 176000 MFI |  |  | 
PR007244 (antibody, human IgG1, V domains shown, HCDR2 PTM-removal mutant of PR004533; HCAb, human IgG1 Fc; also called 4533_M4H6) VH: EVQLVESGGGLVQPGGSLRLSCAASGFTFSSYWMHWVRQVPGKGLVWVSRIDSRGSRTIYADSVKGRFTISRDNAKNTLYLQMNSLRAEDTAVYYCARGEDHDILTGYPIRGQGTTVTVSS |  |  |  |  |  |  | 11.7 nM | 1.3e+06 MFI | 49.2 nM | 153000 MFI |  |  | 
PR007245 (antibody, human IgG1, V domains shown, HCDR2 PTM-removal mutant of PR004533; HCAb, human IgG1 Fc; also called 4533_M6E6) VH: EVQLVESGGGLVQPGGSLRLSCAASGFTFSSYWMHWVRQVPGKGLVWVSRISSDASRTIYADSVKGRFTISRDNAKNTLYLQMNSLRAEDTAVYYCARGEDHDILTGYPIRGQGTTVTVSS |  |  |  |  |  |  | 13 nM | 1.31e+06 MFI | 63.2 nM | 137000 MFI |  |  | 
PR007246 (antibody, human IgG1, V domains shown, HCDR2 PTM-removal mutant of PR004533; HCAb, human IgG1 Fc; also called 4533_M3F10) VH: EVQLVESGGGLVQPGGSLRLSCAASGFTFSSYWMHWVRQVPGKGLVWVSRISSTGSRTIYADSVKGRFTISRDNAKNTLYLQMNSLRAEDTAVYYCARGEDHDILTGYPIRGQGTTVTVSS |  |  |  |  |  |  | 14.4 nM | 1.37e+06 MFI | 55.9 nM | 166000 MFI |  |  | 
PR007248 (antibody, human IgG1, V domains shown, HCDR2 PTM-removal mutant of PR004533; HCAb, human IgG1 Fc; also called 4533_M10E7) VH: EVQLVESGGGLVQPGGSLRLSCAASGFTFSSYWMHWVRQVPGKGLVWVSRINHDSSRTIYADSVKGRFTISRDNAKNTLYLQMNSLRAEDTAVYYCARGEDHDILTGYPIRGQGTTVTVSS |  |  |  |  |  |  | 12.8 nM | 1.31e+06 MFI | 74.6 nM | 174000 MFI |  |  | 
PR004227 (antibody, V domains shown, anti-CLDN18.2 HCAb: VH fused to human IgG1 Fc, no light chain; also called R1029P(CG20)001B02) VH: EVQLVESGGGLVQPGGSLRLSCAASGFTFSSYWMHWVRQAPGKGLEWVSYINNDGSSTRYADSVKGRFTISRDNAKNTLYLQMNSLRAEDTAVYYCTEAPPYGNYERDYWGQGTLVTVSS | 22.3 nM | 98.3% |  |  | 20.3 nM | 93.8% |  |  |  |  | 28.5 nM | 14800 MFI | 
PR004953 (antibody, V domains shown, anti-CLDN18.2 HCAb: VH fused to human IgG1 Fc, no light chain; also called R1029P024B07) VH: EVQLVESGGGVVQPGRSLRLSCAASGFTFSSYGMHWVRQAPGKGLEWVAVIGYDGRNKYYADSVKGRFTISRDNSKNTLFLQMDNLRAEDTALYYCARHFPSLPGTTDTFDIRGPGTMVTVSS | 16.7 nM | 98% | 12 nM | 219000 MFI | 13.8 nM | 93.2% |  |  |  |  |  |  | 
PR002199 (bispecific antibody) chain 1: not shown chain 2: EVQLVESGGGLVQPGRSLRLSCAASGFTFDDYAMHWVRQAPGKGLEWVSGISWNSGSIGYADSVKGRFTISRDNAKNSLYLQMNSLRAEDTALYYCAKDSRGYGDYRLGGAYWGQGTLVTVSSASTKGPSVFPLAPSSKSTSGGTAALGCLVKDYFPEPVTVSWNSGALTSGVHTFPAVLQSSGLYSLSSVVTVPSSSLGTQTYICNVNHKPSNTKVDKKVEPKSCDKTHTCPPCPAPEAAGGPSVFLFPPKPKDTLMISRTPEVTCVVVDVSHEDPEVKFNWYVDGVEVHNAKTKPREEQYNSTYRVVSVLTVLHQDWLNGKEYKCKVSNKALGAPIEKTISKAKGQPREPQVYTLPPCREEMTKNQVSLWCLVKGFYPSDIAVEWESNGQPENNYKTTPPVLDSDGSFFLYSKLTVDKSRWQQGNVFSCSVMHEALHNHYTQKSLSLSPGK chain 3: EVQLLESGGGLVQPGGSLRLSCAASGFTVSSYGMSWVRQAPGKGPEWVSGIRGSDGSTYYADSVKGRFTISRDNSKNTLYLQMNSLRAEDTAVYYCAKQGENDGPFDHRGQGTLVTVSSGGGGSEVQLLESGGGLVQPGGSLRLSCAASGFTVSSYGMSWVRQAPGKGPEWVSGIRGSDGSTYYADSVKGRFTISRDNSKNTLYLQMNSLRAEDTAVYYCAKQGENDGPFDHRGQGTLVTVSSASEPKSSDKTHTCPPCPAPEAAGGPSVFLFPPKPKDTLMISRTPEVTCVVVDVSHEDPEVKFNWYVDGVEVHNAKTKPREEQYNSTYRVVSVLTVLHQDWLNGKEYKCKVSNKALGAPIEKTISKAKGQPREPQVCTLPPSREEMTKNQVSLSCAVKGFYPSDIAVEWESNGQPENNYKTTPPVLDSDGSFFLVSKLTVDKSRWQQGNVFSCSVMHEALHNHYTQKSLSLSPGK |  |  |  |  |  |  |  |  |  |  |  |  | Kd [9]: 241 nM; koff [9]: 0.0518 s⁻¹; kon [9]: 215000 M⁻¹ s⁻¹
